These results are taken from the DeepSol protein solubility set.

The nature of this data set: soluble on expression in E. coli; label from the status in PepcDB or PDB records.
Regarding “MGKNRNKNKDKDPYIGPAKTGRNDSDSDDSESSAYTYNEDIQSIMGDVEDMNDVYDQLVDNLDRAQDKNSTTRIDGLHRVNLALTAKPAPEFINRNKETIMAVCSRMANKPDSEAQFLARLVGLVAVQAGEEISEMIAEPMSQMRTILMDASRCVFLRTACATSLAIVTRIACSEDEEVTANAKACRFAWAHTKVSGSANDIGHAKLTINDAVADQPKIVTLLSSNQLEVRLAAAETLAFLHEFMQDARPGFRFPNKEHVLSLLDQMVNDSSKKKTKKDKRAQRYAVRDIRAFIADEDDAPEVNVKIGQQTLSLDSCAIKIFYDTTCDLLHGGLAQQLLHNEVLRDVFDLGPIALEPAESANKQSRLAVHEAADKHRNQVRGKQRDKRSTVY”, the “soluble on expression in E. coli” value was “not soluble”. In the case of “MASYKKERLENDIIRLINRTVIHEIYNETVKTGHVTHVKLSDDLLHVTVYLDCYNREQIDRVVGAFNQAKGVFSRVLAHNLYLAKAVQIHFVKDKAIDNAMRIESIINSLKKSKPN”, the “soluble on expression in E. coli” value was “soluble”. For the sequence “MSLNSEAKSRIACDIDFDRDGRQAGYARAPLSRNNSGWGTVEIPITVVKNGSGPTVLLTGGVHGDEYEGQIAISDLARRLRPEEVQGRVIMLPAVNMPAIQSDTRLSPVDGRDINRCFPGDPRGTFSQMLAHFLDSVILPMADISVDMHTAGHSYDSTPSTNMHYLADPALRARTLAAAEAFGAPHNVVFGGVDEGSTFTSCVERRGIVSLGTELGGWGRVNIEGVRIGKRGILNVLKHMGVIEGTPETAQRGGAAGTRHMMVREADAYVMAPRTGLFEPTHYVGEEVRTGETAGWIHFVEDVDTAPLELLYRRDGIVWFGAGPGRVTRGDAVAVVMEDYNDTWPQEGHHHHHH”, the “soluble on expression in E. coli” value is “soluble”. On to “MGSDKIHHHHHHMSIMNSLLQQKETVVKGWLTYYVSVDDPYVFALKDDHRLMDETGFVLENLFIGMTEDLAKMNTFARELGKAQFITSLGISRILFHIRLLEEFLLDYASEINAECNNYRELYLFSIKLHQVFSSFTQHLIEGYTLATEQLVQQKENQIIKSSTKLIWLAEKVFLLPLIGKITDERAKQITETALFETCEQPVNYLIIDLSGVQFDSANIGEYIEHFFSSLKLVGVTPIITGMQPETAKIMVQANLTEQKGIKTFATLRQATKSLIKEKEARNAIK”, for which the “soluble on expression in E. coli” value is recorded as “not soluble”. On to “MSLPYSSSGVGHNGFDKADLHIHTKCSDGLFTPEEIVHKAIHVGLKAISITDHDTVTGIDQAKPLALELGLELIPGVEMSSAYKGYDIHILGYFFDYQQSELKGYLDHCRLLRTERAERMVQKLAKMGVKIEIEQIIMKAQNGSVGRPHIAAVLQDEGFVKSFSEAFSKYLGSHSPAYVKSIETHPEEVIRLINEAGGLSFLAHPAQNVPDEILRQLISFGLDGLEIIHPSHDTYRQNYYREIANEYFLLFSGGSDYHGPKDHEDNFGQVWIPYEWVTKMKSRLAPAVKEGHHHHHH”, for which the “soluble on expression in E. coli” value was “soluble”. For “MSLGYATAHRRVRHLSADQVITRPETLAVEEPLEIRVNGTPVTVTMRTPGSDFELVQGFLLAEGVVAHREDVLTVSYCGRRVEGNATGASTYNVLDVALAPGVKPPDVDVTRTFYTTSSCGVCGKASLQAVSQVSRFAPGGDPATVAADTLKAMPDQLRRAQKVFARTGGLHAAALFGVDGAMLAVREDIGRHNAVDKVIGWAFERDRIPLGASVLLVSGRASFELTQKALMAGIPVLAAVSAPSSLAVSLADASGITLVAFLRGDSMNVYTRADRITEGHHHHHH” the value was “soluble”; for “MVSTESEIAVRIRGIYSTALTKLLMDRGFKIVQPSDVIAERFGIEKSYEDFDVDIYDKNHGVTIVGTKVEAVKKVFEEEFIDVFFRKLPYKLHGIYKGLVVKRDDRFVYVDIGNVIGTVLIEELPDAAEGDEVVVQVKKHNVLPHLSTLITIPGDYAVLIPKPIGVQRHVKISRKIKDPEERERLRILGLSVDLGEWGVLWRTAAAYKDWNTLRDELVRLSKIADKLKEAEKFSAPAEIIEGREIYEIEFGGGVKKKLDEIRNEVVPTIEGHHQFKSYDPEFTLAVDVAEGILAKLPSQRQKISKGFLEAIITSKGPKVGWIFTLNHVKPDGQIIKIGPGEVIEVSTDPLKVTIKRYLRPGKFYDGLEVPIESGDYAITEIEAGKWWFVHRYYDKDGNLKGEFYNINTPVEIYPDKARYVDLEVDIVRWPDGKKEIIDKEKLKEHYEEGIISEKLYKATLRIAQEVYDRLLEHHHHHH”, “not soluble”; for “MGSSHHHHHHSSGRENLYFQGHMCILMATRAHPDYELILISNRDEFLARKTHATCWHNNDFILSPYDLAKTSAEKQIFGTWSGINKEGKLATILNLKLDNEQNNTKSRSRGLLPFIFLSIHKADFEDWDNYKKFEGHYDGLKSTGDFNFFYGDVIKKQYKVIDSLGRTFDVLSSTCRKDLDSYMVVSNGKFYDSSSIPGQAWEKVKVARDSLENLVLENIESDEEKIISSCFQLASKSSLPSTISNPDVLQMVDPNVTMNTIYVPPLRRPPRDDLGASIPDGDYYGTRSQIVLLVSKDSTRVTFIERVLYSSDEDVRKYSVTSPKEEKRFKFKL”, “soluble”. The entry for “MRGSHHHHHHGSESETLTAKATITTTTLPSHDETKTESTEFEKNQKRYQDLISTFPHEKGWRPKEPLIEYGGYWWLPSLLEGCIHAQEFFQARPSDFLVCSYPKTGTTWLKALTFAIANRSRFDDSSNPLLKRNPHEFVPYIEIDFPFFPEVDVLKDKGNTLFSTHIPYELLPDSVVKSGCKMVYIWREPKDTFISMWTFLHKERTELGPVSNLEESFDMFCRGLSGYGPYLNHILAYWKAYQENPDRILFLKYETMRADPLPYVKSLAEFMGHGFTAEEEEKGVVEKVVNLCSFETLKNLEANKGEKDREDRPGVYANSAYFRKGKVGDWSNYLTPEMAARIDGLMEEKFKGTGLLEHGKKLN” is “soluble”.

On to “MSLEMYPKIEDIKASYQNYCEFLEKVNTINLLKHKGKYIHYEDFNDNQIKRKIEKLESSILKTNVKYQKGAYIIYYKLRPGVIEFLRTMSEKYEIYLYTMGTLEHAKSCLFLLDPLRKFFGNRVFSRKDCLNSLKHLNKILPTYRSVSICIDDSDYIWKENSSCIKVHGYNYFPDINFFEDIKRAPYFLTKFFTFAQSYLNFTSNIYRFINFKCSEHEEFLKEGHHHHHH”, for which the “soluble on expression in E. coli” value is on record as “not soluble”. Consider “MGSDKIHHHHHHMSAPTITTLGEFLQAGQAEYKIFDIGRCLTELSQEEFAAIEQQQRPYPYPIARQAQLAILFQHKQHDQQPFIWFLQFPLDERGLLNIAARNQYLEYVVNALGHEITGEMTEEQQKQLQQNPYLLTPNEQQRAALHARVQRQQKLSPSIHFETAEAYLKQPESGIDWQQMGLQGLHDCAARLEQLPELSKAIATHFSHYPSAVRQPLAVALEQQSLTPPVRDALLQNLESSNAQLCTDSLRALASASAHPRVKKAVNKLVPHANADQLVVIAARLWPVLCEEQNLLRYLDAIAELDNSLFDALFQDIIALPDIRPLLLSIIAQQKQSAAVNEALNRLKQQTQGS”, for which the “soluble on expression in E. coli” value is reported as “not soluble”. For the sequence “MAIKSVVVGKGTLTLAMKDAHTQALDFSAQVTSAKFQPDSSTGDSITVLSGETIPGKKSFGGHLEIDFLQDFSTNGIVDFSYKNAGKEADFVYTPNTEAKAKLQGTVIIAPLEVGDDVEAIAKSAAKWVVPSLPTFTPGG”, the “soluble on expression in E. coli” value is “not soluble”. The entry for “SNAQVEVIVMMHGRSTATSMVETVQELLSIESGIALDMPLTVEVKAMYEKLKQTVVKLNPVKGVLILSDMGSLTSFGNILTEELGIRTKTVTMVSTPVVLEAMRKASLGRGLEDIYQSCEQLFENKYKAH” is “soluble”.

As for “MGSDKIHHHHHHMSTFHPSHPTHNRLLAALPPIELDDLAPHLELVHLLPGDVLCKPGETLPYAYFPTSSVISIHCMLENGASSELTSVGREGMLGVSLFMGGEATQNWVSVQSAGYGYRLNAAFLLQEFNEGGMLQRLLLRYSQALITEAVQNVVCSRYHTAQQRLCRWLLSMLDRLGPQDLILTQESIASILGVRRESVTAIARKLLEAGTICYRRGHIMVIDQIGLQKETCECYKKVKKEFDQVFDEVKTCEKVRQNSINAANAL”, the “soluble on expression in E. coli” value is listed as “not soluble”.

For “MGSSHHHHHHSSGLVPRGSHMNESIVISLGGSVISGDPIDADYMKSFARILEASKYRRVGIVTGGGRTARSYISVLRKLNVNENVLDEIGIYATRMNALSMASLIPGSNPTIPFTVEDAVNLMNTYRFVVMGGTEPGHTTDTVAALLCERSATRTLINVTSVDGVYDMDPHRFANAKRFDRIGYREAIALSTKSSAGAGPNVFMDITALTIAMRSRIRVIVTSRDIDNLEKILKGDRAVSTFIDDDQRS”, the “soluble on expression in E. coli” value is reported as “soluble”. With “MDTLQNMRAFSSVAQAGSFTAAAAVLDTTTANVSRAVSNLEAHLQTRLLNRTTRRIALTEAGKRYLLRCEQILASVEEAEAEASDAHARPAGQLKVHSMPGVGQHYVIDAIARYRRNHPDVAFDLTMTHRVPDLLEEGFDVSIVLASELADSGFVSQRLGITYSIVCASPEYVKTFGMAHKPADLLNHACLRLVSPVFPLDKWLFDGPEGQEMVTINSSPLLVNSADAMKTAISSGMGIGILPIYSAIEGLRNGTLVRVLSDYRSQELNLYAIYPSRQYLDAKIRTWVEYLRGSLPEILAADEADLHVQALKASC”, the “soluble on expression in E. coli” value is given as “not soluble”.

As to “MIEIKDKQLTGLRFIDLFAGLGGFRLALESCGAECVYSNEWDKYAQEVYEMNFGEKPEGDITQVNEKTIPDHDILCAGFPCQAFSISGKQKGFEDSRGTLFFDIARIVREKKPKVVFMENVKNFASHDNGNTLEVVKNTMNELDYSFHAKVLNALDYGIPQKRERIYMICFRNDLNIQNFQFPKPFELNTFVKDLLLPDSEVEHLVIDRKDLVMTNQEIEQTTPKTVRLGIVGKGGQGERIYSTRGIAIGLSAYGGGIFAKTGGYLVNGKTRKLHPRECARVMGYPDSYKVHPSTSQAYKQFGNSVVINVLQYIAYNIGSSLNFKPY”, the “soluble on expression in E. coli” value is given as “soluble”. In the case of “MLDRIRGQLEQLSSAERKVADLVLEQPYTVIQAAVAEIARNAGVSQPTVIRFCRTVGCSGLPDFKLKLAGSLVTGVPYVHSSVRPEDPTSEIVAKVFDNTVSALLKCRNDVN”, the “soluble on expression in E. coli” value is given as “not soluble”. The entry for “VLQTRNYTCGPAALATVLQRLGVNTTEDELAGLAGTTEEGTTMQGLLEASRAKGMNATGMKLNISELKENMIAYTINDGTGHYTVINEITNDTIKLADPSLGNIEMNIEEFAEIYSGYTLVI” is “soluble”; for “MGSDKIHHHHHHVAISVAGGVRPGKIIEIEHRLYQQLILGKHKASPTLLDDLDLELEADANKLDVEREAILARLMKQIKAKEVFEAVSSQLHETVNNAIEHQLASPELVLAKSEINESQILLLELLLAKNLDATRLRPLISNLSWLCRDLTNMVNSPSFRARRPQSSDVRVTDIKLVMNYIGIENLRTIIPYFCLRNWLPSANAKLLWTTRKLWRYSIVSGIAANALAQLHNTDSALVYSSALLNQLGTSVVLSLSARLFDQTWGAWIREASSSRDKEVYDAVIATEFPAKAVFEQVLSHGHKLNWQLLELLKFEASPLTGLLKELDLTLSYRELSPQAALVARANCYAKVVLLEEMRQIDPQEKRLMFDYYELTEQEVLRLKAQNYRKLDLL” it is “not soluble”.

Consider “MTLSSKTTKKNTSQHKHPRYVDCDNCSMRAICQPIGADNQAIDLTSNYLTRRVEVSTEQSSSLPLNQSAGVALFEQASPLTAIFAVCSGTFKLCQKNDDGLDRIVGFRFPGELIGEDALFLEVYNYSAVALGDNSVCEVYVDSLSACSQLAPELQQNLIQLLTKQSYEQQRNAHAITGKKSADCLLAAFLLNICQRNAKHSGNETEIELTISRQDIASFLGMRRETLSRLLSKFQHEQLISLNGKQLSLLSLNHLKQLSNQ”, for which the “soluble on expression in E. coli” value is recorded as “not soluble”.
